Consider 15 molecules from patent publication US20190382474A1 (SURFACE ONCOLOGY, published 2019).

Where a chain is given by its changes, count along the chain named. Where “and” joins values, the source holds several entries; their conditions need not be identical. Identical values can stand only once.

Assay [1] addresses T1, recombinant human IL-27 (human, UniProt Q14213 21-229; Q8NEV9 29-243).
T1 construct: Bought from R&D Systems (Cat. 2526-IL); also called hIL-27; rhIL-27
T1 sequence 1: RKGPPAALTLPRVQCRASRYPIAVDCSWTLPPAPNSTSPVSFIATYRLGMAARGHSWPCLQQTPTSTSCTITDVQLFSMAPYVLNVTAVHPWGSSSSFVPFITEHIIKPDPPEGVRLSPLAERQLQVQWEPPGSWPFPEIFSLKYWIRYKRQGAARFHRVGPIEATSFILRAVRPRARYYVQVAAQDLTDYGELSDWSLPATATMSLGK
T1 sequence 2: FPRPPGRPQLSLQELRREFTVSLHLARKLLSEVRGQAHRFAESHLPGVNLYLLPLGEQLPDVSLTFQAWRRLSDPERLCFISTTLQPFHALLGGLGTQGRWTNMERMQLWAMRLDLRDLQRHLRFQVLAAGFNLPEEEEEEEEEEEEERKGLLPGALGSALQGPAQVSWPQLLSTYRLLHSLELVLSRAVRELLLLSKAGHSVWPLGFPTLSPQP
As to the kind of experiment: column 'Affinity hIL-27 (M)', property (i); method not given, paragraph 885 names SPR (BIACORE 2000). In general terms: In SPR one partner is held on a chip, and binding of the other changes the refractive index at the surface.

Assay [2] deals with T1, recombinant human IL-27. As to the kind of experiment: SPR, hIL-27 on CM5 chip, bivalent analyte model. Here is the method:
(§1) The antibodies were further characterized by surface plasmon resonance (SPR). Kinetic experiments were performed on a Biacore T200 (GE Healthcare, Uppsala, Sweden). All experiments were run at 25° C. with HBS-P+ running buffer (pH 7.4) (GE Healthcare, Little Chalfont, UK) using hIL-27 (R&D Systems, Abingdon, UK). Human IL-27 (hIL-27) antigen was captured on a CM5 chip to ˜16 RU. Immobilization was carried out at a protein concentration of 1 μg/mL in 10 mM acetate buffer pH 5.0. A three point, three-fold dilution range from 3.3 nM to 30 nM of antibody diluted in HBS-P+ buffer without regeneration between each concentration was used. The association phase for the three injections of increasing concentrations of antibody was monitored for 75 seconds each time and a single dissociation phase was measured for 250 seconds following the last injection of antibody. Regeneration of the hIL-27 surface was conducted using a single injection of 2M MgCl₂ for 120 s. Multiple repeats (n=4) of the chimeric antibody were performed throughout the assay to check the stability of the surface and analyte over the kinetic cycles.
(§2) Both 1:1 binding and bivalent analyte models were used to analyze the data due to the bivalent nature of the antibody. The results from the 1:1 binding model analysis are summarized in Table 4 and results from the bivalent analyte model are summarized in Table 5.

The target in assay [3] is T1, recombinant human IL-27. The experiment in a line: SPR, hIL-27 on CM5 chip, bivalent analyte model (ka1). Here is the method:
as §1, §2

Assay [4] has as its target T1, recombinant human IL-27. As to the kind of experiment: SPR, hIL-27 on CM5 chip, bivalent analyte model (kd1). As for the experimental part: as §1, §2
Assay [5] concerns the target T1, recombinant human IL-27. The experiment in a line: SPR (Biacore T200), hIL-27 on CM5 chip, single cycle, 1:1 model. As for the experimental part:
as §1, §2

B1: SRF573 (antibody, V domains shown)
VH: QVQLVQSGAEVKKPGSSVKVSCKASGGTFSSYAISWVRQAPGQGLEWMGGIIPIFGTANYAQKFQGRVTITADESTSTAYMELSSLRSEDTAVYYCARSYYSSRWHYYYYMDVWGKGTTVTVSS
VL: DIQMTQSPSSVSASVGDRVTITCRASQGISSWLAWYQQKPGKAPKLLIYAASNLQSGVPSRFSGSGSGTDFTLTISSLQPEDFATYYCQQADDLPLTFGGGTKVEIKR
Turning to B1, the Kd – broadly, the equilibrium constant for the complex coming apart – in assay [1] came to 0.74 nM.

B2: SRF583 (antibody, V domains shown)
VH: QLQLQESGPGLVKPSETLSLTCTVSGGSISSSSYYWGWIRQPPGKGLEWIGSISYSGSTYYNPSLKSRVTISVDTSKNQFSLKLSSVTAADTAVYYCAREEYSFSYLDYWGQGTTVTVSS
VL: B1 VL with D92L, D93L, L94F, L96P
Take B2: the Kd in assay [1] is 1.98 nM.

B3: Ab7.1 (antibody, human IgG1, kappa)
heavy: not shown
light: DIQMTQSPASLSASVGETVTITCRASENIYSYLAWYQQKQGKSPQLLVYNAETLTEGVPSRFSGSGSGTQFSLKINSLQPEDFGNYYCQHHYGTPLTFGAGTKLDLKRTVAAPSVFIFPPSDEQLKSGTASVVCLLNNFYPREAKVQWKVDNALQSGNSQESVTEQDSKDSTYSLSSTLTLSKADYEKHKVYACEVTHQGLSSPVTKSFNRGEC
notes: human IgG1/kappa chimera from HEK293 EBNA cells; also called chimeric Ab7.1 antibody; chimeric antibody
Regarding B3, in assay [2], the ka2 was 0.021 1/RUs and the kd2 is 0.046 s⁻¹. Further, the kon (as a rule, the rate constant with which the complex forms) in assay [3] amounted to 670000 M⁻¹ s⁻¹. Besides, the koff (commonly the rate constant with which the complex falls apart) in assay [4] was 0.0022 s⁻¹. Further, in assay [5], the Kd is 1 nM, the “Relative KD to Ab7.1” value turned out to be 1, the koff stood at 0.0015 s⁻¹ and the kon came out at 1.4e+06 M⁻¹ s⁻¹.

B4: Ab7.2 (antibody, human IgG1, kappa, V domains shown)
VH: EVKLVESGGGLVQPGGSLKLFCAASGFTFTSYSMSWVRQTPEKRLEWVAYISYDGGSAYYPDTVKGRFSISRDNAKKTLYLQMSSLKSEDTAMYYCARHGDYDDDDAMDYWGQGTSVTVSS
VL: DIQMTQSPSSLSASVGDRVTITCRASENIYSYLAWYQQKQGKAPKLLVYNAETLTEGVPSRFSGSGSGTDFTLTISSLQPEDFANYYCQHHYGTPLTFGQGTKLDIKR
notes: human IgG1/kappa
For the molecule B4, in assay [2], the ka2 is 0.035 1/RUs and the kd2 turned out to be 0.087 s⁻¹. Further, in assay [3], the kon was 700000 M⁻¹ s⁻¹. The koff in assay [4] was 0.0027 s⁻¹. In assay [5], the Kd amounted to 1.2 nM, the “Relative KD to Ab7.1” value was determined as 1.2, the dissociation rate constant (koff) was 0.0018 s⁻¹ and the kon is 1.5e+06 M⁻¹ s⁻¹.

B5: Ab7.3 (antibody, human IgG1, kappa, V domains shown)
VH: B4 VH with K19R, F21S, T40A, E42G, R44G, S69T, A75S
VL: DIQMTQSPASLSASVGETVTITCRASENIYSYLAWYQQKQGKSPQLLVYNAETLTEGVPSRFSGSGSGTQFSLKINSLQPEDFGNYYCQHHYGTPLTFGAGTKLDLKR
notes: human IgG1/kappa
For the molecule B5, in assay [2], the ka2 was 0.029 1/RUs and the kd2 was 0.063 s⁻¹. The on-rate (kon) in assay [3] was 750000 M⁻¹ s⁻¹. Further, in assay [4], the dissociation rate constant (koff) is 0.0022 s⁻¹. Further, in assay [5], the equilibrium dissociation constant (Kd) is 0.96 nM, the “Relative KD to Ab7.1” value came to 0.9, the off-rate constant (koff) amounted to 0.0015 s⁻¹ and the kon came out at 1.5e+06 M⁻¹ s⁻¹.

B6: Ab7.17 (antibody, human IgG1, kappa, V domains shown)
VH: EVQLVESGGGLVQPGGSLRLSCAASGFTFTSYSMSWVRQAPGKGLEWVAYISYDGGSAYYPDTVKGRFTISRDNSKNTLYLQMNSLRAEDTAVYYCARHGDYDDDDAMDYWGQGTLVTVSS
VL: B4 VL with Q40P, D105E
notes: human IgG1/kappa
For the molecule B6, in assay [2], the ka2 was 0.039 1/RUs and the kd2 was 0.09 s⁻¹. In addition, the kon in assay [3] amounted to 580000 M⁻¹ s⁻¹. Also, the koff in assay [4] was found to be 0.0029 s⁻¹. Besides, in assay [5], the dissociation constant Kd was determined as 1.5 nM, the “Relative KD to Ab7.1” value was determined as 1.5, the dissociation rate constant (koff) came to 0.0019 s⁻¹ and the on-rate constant (kon) turned out to be 1.3e+06 M⁻¹ s⁻¹.

B7: Ab7.8 (antibody, human IgG1, kappa, V domains shown)
VH: B6 VH with N84S, R87K, A88S, V93M
VL: B4 VL
notes: human IgG1/kappa
As for B7, in assay [2], the ka2 was 0.064 1/RUs and the kd2 is 0.15 s⁻¹. Also, in assay [3], the kon amounted to 580000 M⁻¹ s⁻¹. For the same molecule, the koff in assay [4] was determined as 0.0027 s⁻¹. Further, in assay [5], the equilibrium dissociation constant (Kd) came to 1.5 nM, the “Relative KD to Ab7.1” value is 1.4, the koff came out at 0.0018 s⁻¹ and the kon worked out at 1.3e+06 M⁻¹ s⁻¹.

B8: Ab7.4 (antibody, human IgG1, kappa, V domains shown)
VH: B4 VH with K19R, F21S, T40A, E42G, R44G, S69T, A75S
VL: B4 VL
notes: human IgG1/kappa
Regarding B8, the kon in assay [3] was 720000 M⁻¹ s⁻¹ and 710000 M⁻¹ s⁻¹. For the same molecule, the dissociation rate constant (koff) in assay [4] was 0.0026 s⁻¹ and 0.0025 s⁻¹. Further, in assay [5], the Kd was 1.2 nM and 1.3 nM; the “Relative KD to Ab7.1” value worked out at 1.2; the koff stood at 0.0018 s⁻¹; the kon was found to be 1.5e+06 M⁻¹ s⁻¹.

B9: Ab7.10 (antibody, human IgG1, kappa, V domains shown)
VH: B6 VH with N84S, R87K, A88S, V93M
VL: B4 VL with Q40P, N85T, D105E
notes: human IgG1/kappa
For B9, in assay [2], the ka2 was 0.084 1/RUs and the kd2 amounted to 0.2 s⁻¹. Further, the kon in assay [3] came out at 600000 M⁻¹ s⁻¹. In assay [4], the off-rate (koff) was found to be 0.0025 s⁻¹. Besides, in assay [5], the dissociation constant Kd came out at 1.4 nM, the “Relative KD to Ab7.1” value amounted to 1.4, the koff turned out to be 0.0018 s⁻¹ and the kon amounted to 1.3e+06 M⁻¹ s⁻¹.

B10: Ab7.12 (antibody, human IgG1, kappa, V domains shown)
VH: B6 VH with Q3K, N77K
VL: B4 VL
notes: human IgG1/kappa
On to B10, for which, in assay [2], the ka2 was 0.11 1/RUs and the kd2 stood at 0.29 s⁻¹. Besides, the kon in assay [3] turned out to be 750000 M⁻¹ s⁻¹. Also, the koff in assay [4] was found to be 0.0026 s⁻¹. In addition, in assay [5], the Kd was 1.2 nM, the “Relative KD to Ab7.1” value came to 1.2, the koff came to 0.0018 s⁻¹ and the association rate constant (kon) is 1.5e+06 M⁻¹ s⁻¹.

B11: Ab7.13 (antibody, human IgG1, kappa, V domains shown)
VH: B6 VH with Q3K, N77K
VL: B4 VL with Q40P, D105E
notes: human IgG1/kappa
Consider B11, for which, in assay [2], the ka2 is 0.02 1/RUs and the kd2 was 0.053 s⁻¹. The on-rate constant (kon) in assay [3] stood at 740000 M⁻¹ s⁻¹. Also, the dissociation rate constant (koff) in assay [4] amounted to 0.0026 s⁻¹. Also, in assay [5], the Kd is 1.2 nM, the “Relative KD to Ab7.1” value was 1.2, the off-rate constant (koff) was 0.0018 s⁻¹ and the on-rate constant (kon) was found to be 1.5e+06 M⁻¹ s⁻¹.

B12: Ab7.9 (antibody, human IgG1, kappa, V domains shown)
VH: B6 VH with N84S, R87K, A88S, V93M
VL: B4 VL with Q40P, D105E
notes: human IgG1/kappa
B12: in assay [2], the ka2 is 0.043 1/RUs and the kd2 is 0.11 s⁻¹. Further, the kon in assay [3] is 590000 M⁻¹ s⁻¹. The dissociation rate constant (koff) in assay [4] was 0.0028 s⁻¹. In addition, in assay [5], the Kd is 1.5 nM, the “Relative KD to Ab7.1” value amounted to 1.5, the koff amounted to 0.0019 s⁻¹ and the kon worked out at 1.3e+06 M⁻¹ s⁻¹.

B13: Ab7.5 (antibody, human IgG1, kappa, V domains shown)
VH: B4 VH with K19R, F21S, T40A, E42G, R44G, S69T, A75S
VL: B4 VL with Q40P, D105E
notes: human IgG1/kappa
As to B13, in assay [2], the ka2 was 0.028 1/RUs and the kd2 was determined as 0.068 s⁻¹. For the same molecule, the association rate constant (kon) in assay [3] was 680000 M⁻¹ s⁻¹. Moreover, in assay [4], the koff came to 0.0027 s⁻¹. In assay [5], the Kd came out at 1.2 nM, the “Relative KD to Ab7.1” value was determined as 1.2, the koff was 0.0018 s⁻¹ and the kon stood at 1.5e+06 M⁻¹ s⁻¹.

B14: SRF414 (antibody, V domains shown)
VH: QVQLQQWGAGLLKPSETLSLTCAVYGGSFSRYYWSWIRQPPGKGLEWIGSIDYSGSTEYNPSLKSRVTISVDTSKNQFSLKLSSVTAADTAVYYCARDGVYYDSSDLGFDIWGQGTMVTVSS
VL: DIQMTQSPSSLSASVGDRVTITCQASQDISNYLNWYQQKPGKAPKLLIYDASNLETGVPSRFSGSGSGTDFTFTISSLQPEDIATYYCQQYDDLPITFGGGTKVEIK
notes: also called SRF414-A; SRF414-B
Take B14: the Kd in assay [1] is 0.52 nM.

B15: SRF541 (antibody, V domains shown)
VH: QVQLQESGPGLVKPSETLSLTCTVSGGSISSYYWSWIRQPPGKGLEWIGSIYYSGSTNYNPSLKSRVTISVDTSKNQFSLKLSSVTAADTAVYYCAREVDRDDVAFDIWGQGTMVTVSS
VL: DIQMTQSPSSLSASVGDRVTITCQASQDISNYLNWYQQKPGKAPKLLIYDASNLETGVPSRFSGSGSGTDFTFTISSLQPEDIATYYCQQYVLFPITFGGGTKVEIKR
For the molecule B15, the Kd in assay [1] came out at 94.4 nM.
